Measured values: the nanobody polyreactivity screen of Harvey et al. (2022)

Test: yeast display, Sf9 membrane polyspecificity reagent, FACS + sequencing; frameworks hold sequencing errors
How it was run: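 Galactose induction of a Saccharomyces cerevisiae BJ5465 synthetic nanobody display library ran 36–48 hours. The cells were then stained for 1 hour at 4 °C with 10% biotinylated, detergent-solubilized Sf9 membrane reagent, pulled down on streptavidin microbeads and FACS-sorted into low and high (top ~1%) gates on expression and reagent-binding fluorescence. Labels for polyreactivity follow the gate of origin.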

Row | Sequence | polyreactivity (PSR sort gate)
1 | QVQLVESGGGLVQAGGSLRLSCASSGSIFYDNAMGWYRQAPGKDRELVAAITVTGGSTYYADSVKGRFTISRDNAKNTVYLQMNSLKPEDTAVFYCAADPDYFDYWGQGTQVTVSS | low polyreactivity
2 | QVQLVESGGGLVQAGGSLRLSCASSGSIFYVYAMGWYRQAPGKERELVATIDWSGGSTYYADSVKGRFTISRDNAKNTVYLQMNSLKPEDTAVYYCAAYGLYGYRRRYRVSFTPYDYWGQGTQVNVSS | low polyreactivity
3 | QVQLVESGGGLVQAGGSLRLSCASSGSISAVNTMGWYRQAPGKERELVATISYSTASTYYADSVKGRFTMSRDNAKKTVYLQMNSLKPEDTAVYYCNKDGRWYAYNSEYDHWGQGTQVTVSS | low polyreactivity
4 | QVQLVESGGGLVQAGGSLRLSCASSGSTFKYYAMGWYRQAPGKERELVAAISSGGSTYYADSVKGRFTISRDNAKNTVYLLMNSLKPEDTAVYDCAARGYYGNFSGSGYWGQGTQVTVSS | high polyreactivity
5 | QVQLVESGGGLVQAGGSLRLSCASSGTFHKYAMGWYRQAPGKERELVASISRSGGSTSYADSVKGRFTISRDNAKNNVYLQMNSLKPEDTAVYYCNTPWGAYKYDYWGQGTEVTVSS | high polyreactivity
6 | QVQLVESGGGLVQAGGSLRLSCASSGYIFSLSGMGWYRQAPGKERELVAAITGSGGGTYADSVKGRFTISRDNAKNTVYLQMISLKPEDTAVYYCAAGGYRRRFWPIYDYWGQGTQVSVSS | low polyreactivity
7 | QVQLVESGGGLVQAGGSLRLSCASSGYTFALYAKGWYRQAPGKERELVAAITDSDGSTYADSVKGRFTITRDNAKNTVYLQMNSVKPEDTAVYYCAAESEQWYSYVLSYDWEYDYWGQGTQVTVSS | low polyreactivity
8 | QVQLVESGGGLVQAGGSLRLSCASSRFNFRSYAMGWYRHPPGKERELVAAISRSGGSTYYADSVKGRFTISRDNAKNTVYLQMNSLKPEDTAVYYCAAEYRIPYFFTYGYWGQGTQVTVSS | high polyreactivity
9 | QVQLVESGGGLVQAGGSLRLSCASYGSIFAYYTMGWYRQAPGKARELVATISSRGGSKNYADSVKGRFTISRDNAKNPVYLQMNSLRPEDTAVYYCYAYHYQSGITVSEYDYWGQGTQVTVSS | high polyreactivity
10 | QVQLVESGGGLVQAGGSLRLSCATSGFTFGWNYMGWYRQAPGKERELVAAITWSGGSTYYADSVKGRFTISRDNAKNTVYLQMNSLKPEDTAVYYCAAVVSDYVWRYEYWGQGSQVTVSS | low polyreactivity
11 | QVQLVESGGGLVQAGGSLRLSCATSGRTFSQYAMGWYRQAPGKERELVAVISGSGGSTYYADSVKGRFTISRDNAKNTVYLQINSLKPEDTAVYYCAKRATSWHQYDYWGQGTQVTVSS | low polyreactivity
12 | QVQLVESGGGLVQAGGSLRLSCATTGSTFQVYTMGWNRQAPGKEREFVASISWSGSSTYYADSVKGRFTISRDNAKNTVYLQMNSLKPEDTAVYYCAARARIKYLADPGYYWGQGTQVTVSS | high polyreactivity
13 | QVQLVESGGGLVQAGGSLRLSCAVSGRIFRRNVMGWYRQAPGKDRELVAGISDSGDSTYYADSVKVRFTISRDNAKNTVYLQMNSLKPEDTAVYYCNARYSTTYYGTIYRGMDYWGQGTQVNVSS | high polyreactivity
14 | QVQLVESGGGLVQAGGSLRLSCDAAGLIFRLNAMGWYRPAPGKERELVAAISFSGGGTYYADSVKGRFTISRDNAKNTVYLQMNSLKPEDTAVYFCAADEYAVYYYYNYEYWGQGTQVTVSS | high polyreactivity
15 | QVQLVESGGGLVQAGGSLRLSCDASGFIFKGNAMGWYRHAPRKERELVAAITNRGGGTYYADSVKGRFTISRDNAKNTVYLQMNSLKPEDTAVYYCAKAYTRPFHPYDYWGQGTQVTVSS | high polyreactivity
16 | QVQLVESGGGLVQAGGSLRLSCDASGFIFRYYDMGWYRQAPGKERELVAAISWRGGRTYYADSVKGRFTISRDNAKNTVYLQMNSLKPEVTAVYYCAAGFSLWTYPKPYGEDSWGQGTQVTVSS | high polyreactivity
17 | QVQLVESGGGLVQAGGSLRLSCDASGFIFYYYDMGWYRQAPGKERELVASIDNGGDTNYADSVKGRFTISLDNAKNTVYLQMNSLKPEDTAVYYCAAPYSPLWYPGGDYWRQGTQVTVSS | low polyreactivity
18 | QVQLVESGGGLVQAGGSLRLSCDASGFNIASYDMGWYRQAPGKERELVAAISKGGGRTYYADSVKGRFTISRDNAKNTVYLQMKSLKPEDTAVYYCAAYAPYPRRAYDYWGQGTQVTVSS | low polyreactivity
19 | QVQLVESGGGLVQAGGSLRLSCDASGFTFRVYAMGWYRQAPGKEREFVASIRSNDGRTYYADSVKGRFTISRDNAKNTVYLQLNSLKPEDTAVYYCAARYSPRGKRYDYWGQGTQVTVSS | high polyreactivity
20 | QVQLVESGGGLVQAGGSLRLSCDASGGIFYGYAMGWYRQAPGKERELVAAISDSGGSTYYSDSVKGRFTITRDNAKNNVYLQMNSLKPEDTAVYYCATDAPVGGYVSEGDYWGQGTQVTVSS | low polyreactivity
21 | QVQLVESGGGLVQAGGSLRLSCDASGITYHNYAMGWYRQAPGKEREYVAAITRNTASSYYADSVKGRFSISRDKAKNTVYFQMNSLKPEDTAVYYCAATDKKHRTAYDSWGQGTQVTVSS | low polyreactivity
22 | QVQLVESGGGLVQAGGSLRLSCDASGLIFPWNSMGWYRQAPGQERELVAAINGRDGSTYYADSVKGRFTISRDNAKNTVYLQMNSLKPEDTAVFYCAKGPSGVRTYREYDSWGQGTQVTVSS | low polyreactivity

Row | Sequence | polyreactivity (PSR sort gate)
23 | QVQLVESGGGLVQAGGSLRLSCDASGRIFGMYAMGWYRQSPGKEREFVAAISWRTGSTYYADSVKGRFTISRDNAKNTVYLQMNSLKPEDTAVYYCAAESAAKYGYWRQGTQVTVSS | high polyreactivity
24 | QVQLVESGGGLVQAGGSLRLSCDASGRIFRGYAMGWYRKAPGKERELVAAISGRGGRTNYADSVKGRFTISRDNAKNTVYLQMNSLKTEDTAVYYCAVKRLSYPYVGHYYFWGQGTQVTVSS | high polyreactivity
25 | QVQLVESGGGLVQAGGSLRLSCDASGRIFRVYAMGWYRPAPGKERELFAAISWSGGRTYYADSVKGRFTISRDNAKNTVYLQMNSLKPEDTAVYYCAAERGGPTYYSGGDYDYWGQGTQVTVSS | high polyreactivity
26 | QVQLVESGGGLVQAGGSLRLSCDASGRIFRYNAMGWYRQAPGKEREFVAAITWRGGSTYYADSVKGRFTISRDNAKYTVYLQMNSLKPEDTAVYYCATRSPFGAAYEYGYWGQGTQVTVSS | high polyreactivity
27 | QVQLVESGGGLVQAGGSLRLSCDASGRIFSENAMGWYRQAPGKERELVDAITGNGGDTYYADSVKGRFTISRDNAKNTVYLQMNSLKPEDTAVYYCAAVTGGLGGDYWGQGTQVTVSS | low polyreactivity
28 | QVQLVESGGGLVQAGGSLRLSCDASGRIFYANAIGWYRQAPGKEREFVAAITRSGGSTYYADSVKGRFTISRDNAKNTVYLQMNSLKPEETAVYYCAAQGGDVYGWRYYYWGQGTQVTVSS | low polyreactivity
29 | QVQLVESGGGLVQAGGSLRLSCDASGRIFYGYVMGWYRQAPGKERELVAAINQSGTSTYYADSVKGRFTISRDNAKNTVYLQMNSLKPEDTAVYYCAADQVGWTYDYWGQGTQVTVSS | low polyreactivity
30 | QVQLVESGGGLVQAGGSLRLSCDASGRTFASNVMGWYRQAPGKERELVAAISRRGGSTYYADSVKGRFTISRDNAKNTVYLQMNSLKPEDTAVYYCNADDKAQSDYWGQGTQVTVSS | high polyreactivity
31 | QVQLVESGGGLVQAGGSLRLSCDASGRTFGQNAMGWYRQAPGTERELVDAISASGSNTYYADSVKGRFTISRDNAKNTVYLQMNSLKPEDTAVYYCAKQVYRPGQQSRYDYWGQGTQVTVSS | low polyreactivity
32 | QVQLVESGGGLVQAGGSLRLSCDASGRTFGVYAMGWYRQAPGKERELVAAISTRGGSTYYADSVKGRFTISRDNAKNTVYLQMNSLKPEDTAVYYCAAEQYVWGYWFNYGYWGQGTQVTVSS | high polyreactivity
33 | QVQLVESGGGLVQAGGSLRLSCDASGRTLGGYTMGWYRQAPGKERELVAAITTGGSTNYADSVKGRFTISRDNAKNTVYLQMNSLKPEDTAVYYCATDLVFDKRYWYDYWGQGTQVTVSS | low polyreactivity
34 | QVQLVESGGGLVQAGGSLRLSCDASGRTSGINAMGWYRQAPGKERELVAAISSGGRTYYADSVKGRFTISRDNAKNTVYLQMNSLKPEDTAVYYCAAVIHWSLYRRMEYWGQGTQVTVSS | high polyreactivity
35 | QVQLVESGGGLVQAGGSLRLSCDASGRTYTGYAIGWYRQAPGKERELVAAISKSGGRTYYADSVKGRFTISRDYAKNTVYLQMNSLKPEDTAVYYCAKVETFLQIAYRRGYDSWGQGTQVTVSS | low polyreactivity
36 | QVQLVESGGGLVQAGGSLRLSCDASGSIFDGYGMGWYRQAPGKERELVASITWNDGSTYYADSVKGRFTISRDNAKNTVYLQMNSLKPEETAVYYCAADQWGYEYDYWGQGTQVTVSS | low polyreactivity
37 | QVQLVESGGGLVQAGGSLRLSCDASGSIFGWYAMGWYRQAPGKERELVAAITFSSVSTYYADSVKGRFTISRDNAKNTVYLLMNSLKPEDTAVYYCAAVVYYTFDYWGQGTQVTVSS | low polyreactivity
38 | QVQLVESGGGLVQAGGSLRLSCDASGSIFIYYAMGWYRQAPGKERELVAAIDYSGDSTYYADSVKGRFTISRDNAKNTVYGQMNSLKPEDTAVYYCARRGFLVHWPRPSYDYWGQGTQVTVSS | low polyreactivity
39 | QVQLVESGGGLVQAGGSLRLSCDASGSIFLFNAMGWYIQAPGKERELVASISRASSTSYADSVKGRFTISRDNAKNTVYLQMNSLKPEDTAVYYCAAVVASFEFRFDYWGQGTQVTVSS | low polyreactivity
40 | QVQLVESGGGLVQAGGSLRLSCDASGSIFQNYAMGWYRQAPGKERELVAAINDDSTYYADSVKGRFTISRDNAKNTVYLQMNSLKPEDTAVYYCNAEDYVTLKIDLSWPYGYWGQGTQVTVSS | low polyreactivity
41 | QVQLVESGGGLVQAGGSLRLSCDASGSIFSKYVMGCYRQAPGKERELVASITSGGSTNYADSVKGRFTISRDNAKNTVYLQMTSQKPEDTAVYFCAARAINTWYRSGVDDWCQGTQVTVSS | low polyreactivity
42 | QVQLVESGGGLVQAGGSLRLSCDASGSIFYDYAMGWYRQAPGKERELVAAITSDTTTNYADSVKGRFTISRDNAKNTVYLQMNSLKPEDTAVYYCNTPPQWLGRYITLTFDYWGQGTQVTVSS | low polyreactivity
43 | QVQLVESGGGLVQAGGSLRLSCDASGSIFYRYAMGWYRQAPGKERELVASISSGVSTNYADSVKGRFTISRDNAKNTVYLQMNSLKPEDTAVYYCAAYYRGWSSSYWYPAYNYWGHGTQVTVSS | low polyreactivity
